Assay results from article PMC2756588.

B1: unnamed (peptide)
chain: PSRRDSLSIPRAVDA
B2: unnamed (peptide)
chain: LSKRLPLRFPEHTSS
B3: unnamed (peptide)
chain: YRRKSIPFAPHQITA
B4: unnamed (peptide)
chain: RVRKTHVPASKRPSG

Target: T1, Nbp2, Q12163
T1 sequence (Q12163 103-180, looked up): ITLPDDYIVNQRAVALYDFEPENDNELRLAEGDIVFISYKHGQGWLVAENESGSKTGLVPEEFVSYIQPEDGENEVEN
Assay: SPOT array
Details: median of control spots 357

Compared with B1, B2 is higher in SPOT intensity: 0 for the first, 2 for the second.

B3 and B4 are the same in SPOT intensity: 0 for the first, 0 for the second.

Target: Rvs167, P39743
Assay: SPOT array
Details: median of control spots 2707

Sequence of Rvs167, P39743 (P39743 419-482): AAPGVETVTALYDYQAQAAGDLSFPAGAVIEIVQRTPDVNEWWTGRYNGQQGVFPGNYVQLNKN

B1 and B2 are the same in SPOT intensity: 0 for the first, 0 for the second.

B3 and B4 are the same in SPOT intensity: 0 for the first, 0 for the second.

Target: T2, Bud14, P27637
T2 sequence (P27637 247-328, looked up): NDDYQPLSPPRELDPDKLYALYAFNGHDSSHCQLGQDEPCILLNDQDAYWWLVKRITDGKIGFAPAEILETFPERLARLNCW
Assay: SPOT array
Details: median of control spots 956

Going from B1 to B2, the SPOT intensity rises from 0 to 1.

Going from B3 to B4, the SPOT intensity rises from 0 to 5.

Target: T3, Abp1, P15891
T3 sequence (P15891 535-592, looked up): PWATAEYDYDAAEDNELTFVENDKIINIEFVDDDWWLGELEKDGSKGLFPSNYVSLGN
Assay: SPOT array
Details: median of control spots 935

Compared with B1, B2 is higher in SPOT intensity: 8 for the first, 22 for the second.

First: B3
Second: B4
The SPOT intensity of the first is lower: 12 for the first, 64 for the second.

Target: T4, Hse1, P38753
T4 sequence (P38753 208-285, looked up): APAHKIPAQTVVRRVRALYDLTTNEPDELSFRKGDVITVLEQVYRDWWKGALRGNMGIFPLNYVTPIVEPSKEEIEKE
Assay: SPOT array
Details: median of control spots 1727

Going from B1 to B2, the SPOT intensity rises from 0 to 101.

Compared with B3, B4 is lower in SPOT intensity: 9 for the first, 2 for the second.

Target: T5, Cyk3, Q07533
T5 sequence (Q07533 1-83, looked up): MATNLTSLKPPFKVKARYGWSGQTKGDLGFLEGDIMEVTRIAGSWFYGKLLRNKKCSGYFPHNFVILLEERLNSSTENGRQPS
Assay: SPOT array
Details: median of control spots 1451

First: B1
Second: B2
The SPOT intensity of the first is higher: 1 for the first, 0 for the second.

Going from B3 to B4, the SPOT intensity rises from 0 to 3.

Target: Myo3, P36006
Assay: SPOT array
Details: median of control spots 468

Going from B1 to B2, the SPOT intensity falls from 3 to 0.

First: B3
Second: B4
The SPOT intensity of the first is lower: 0 for the first, 1 for the second.

Target: T6, Sla1-3, P32790
T6 sequence (P32790 344-424, looked up): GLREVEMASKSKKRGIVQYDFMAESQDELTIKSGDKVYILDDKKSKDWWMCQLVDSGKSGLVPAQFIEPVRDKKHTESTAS
Assay: SPOT array
Details: median of control spots 5475

Compared with B1, B2 is higher in SPOT intensity: 0 for the first, 24 for the second.

Going from B3 to B4, the SPOT intensity falls from 28 to 6.

Target: T7, Lsb1, P53281
T7 sequence (P53281 45-122, looked up): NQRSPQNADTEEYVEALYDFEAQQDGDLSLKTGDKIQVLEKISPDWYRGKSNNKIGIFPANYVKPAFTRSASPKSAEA
Assay: SPOT array
Details: median of control spots 388

B1 and B2 are the same in SPOT intensity: 1 for the first, 1 for the second.

Going from B3 to B4, the SPOT intensity falls from 8 to 0.

Target: T8, Bzz1-1, P38822
T8 sequence (P38822 478-572, looked up): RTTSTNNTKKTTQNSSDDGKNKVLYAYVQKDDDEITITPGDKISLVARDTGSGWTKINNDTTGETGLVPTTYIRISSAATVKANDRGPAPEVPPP
Assay: SPOT array
Details: median of control spots 4446

B1 and B2 are the same in SPOT intensity: 0 for the first, 0 for the second.

B3 and B4 are the same in SPOT intensity: 0 for the first, 0 for the second.

Target: T9, Bbc1, P47068
T9 sequence (P47068 1-78, looked up): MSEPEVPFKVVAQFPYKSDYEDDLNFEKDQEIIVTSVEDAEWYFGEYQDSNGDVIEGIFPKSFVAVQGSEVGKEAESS
Assay: SPOT array
Details: median of control spots 796

Compared with B1, B2 is higher in SPOT intensity: 0 for the first, 2 for the second.

Going from B3 to B4, the SPOT intensity rises from 2 to 11.

Target: Bem1-2, P29366
Assay: SPOT array
Details: median of control spots 4347

Sequence of Bem1-2, P29366 (P29366 139-227): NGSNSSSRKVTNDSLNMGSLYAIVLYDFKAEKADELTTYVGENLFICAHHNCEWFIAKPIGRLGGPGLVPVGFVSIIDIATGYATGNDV

First: B1
Second: B2
The SPOT intensity of the first is lower: 0 for the first, 4 for the second.

Compared with B3, B4 is lower in SPOT intensity: 3 for the first, 0 for the second.

Target: Sho1, P40073
Assay: SPOT array
Details: median of control spots 1148

Sequence of Sho1, P40073 (P40073 287-367): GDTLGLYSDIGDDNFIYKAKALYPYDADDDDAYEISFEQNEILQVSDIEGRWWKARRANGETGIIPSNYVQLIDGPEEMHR

Going from B1 to B2, the SPOT intensity rises from 13 to 29.

Compared with B3, B4 is higher in SPOT intensity: 17 for the first, 124 for the second.

Target: T10, Sla1-2, P32790
T10 sequence (P32790 60-140, looked up): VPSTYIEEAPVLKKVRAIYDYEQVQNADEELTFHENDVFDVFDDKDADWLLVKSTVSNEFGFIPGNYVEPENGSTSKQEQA
Assay: SPOT array
Details: median of control spots 712

B1 and B2 are the same in SPOT intensity: 0 for the first, 0 for the second.

First: B3
Second: B4
The SPOT intensity of the first is lower: 0 for the first, 1 for the second.

Target: T11, Pex13, P80667
T11 sequence (P80667 295-386, looked up): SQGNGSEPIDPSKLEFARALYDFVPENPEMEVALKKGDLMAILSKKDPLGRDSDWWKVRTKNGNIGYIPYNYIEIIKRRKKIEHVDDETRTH
Assay: SPOT array
Details: median of control spots 1341

Going from B1 to B2, the SPOT intensity rises from 1 to 3.

First: B3
Second: B4
The SPOT intensity of the first is higher: 10 for the first, 0 for the second.

Target: Bem1-1, P29366
Assay: SPOT array
Details: median of control spots 4282

Sequence of Bem1-1, P29366 (P29366 55-141): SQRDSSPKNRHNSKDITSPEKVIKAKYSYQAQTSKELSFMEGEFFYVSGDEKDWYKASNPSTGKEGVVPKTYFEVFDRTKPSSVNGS

B1 and B2 are the same in SPOT intensity: 0 for the first, 0 for the second.

B3 and B4 are the same in SPOT intensity: 0 for the first, 0 for the second.

Target: T12, Boi2, P39969
T12 sequence (P39969 32-116, looked up): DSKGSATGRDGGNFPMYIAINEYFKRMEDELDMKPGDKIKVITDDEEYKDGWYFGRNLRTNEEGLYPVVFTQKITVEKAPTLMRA
Assay: SPOT array
Details: median of control spots 1161

First: B1
Second: B2
The SPOT intensity of the first is higher: 1 for the first, 0 for the second.

B3 and B4 are the same in SPOT intensity: 1 for the first, 1 for the second.

Target: T13, Hof1, Q05080
T13 sequence (Q05080 590-669, looked up): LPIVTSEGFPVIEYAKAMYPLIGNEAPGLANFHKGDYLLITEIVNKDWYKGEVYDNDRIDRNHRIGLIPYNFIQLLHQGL
Assay: SPOT array
Details: median of control spots 4086

Compared with B1, B2 is higher in SPOT intensity: 0 for the first, 25 for the second.

Going from B3 to B4, the SPOT intensity falls from 5 to 0.

Target: T14, Myo5, Q04439
T14 sequence (Q04439 1072-1160, looked up): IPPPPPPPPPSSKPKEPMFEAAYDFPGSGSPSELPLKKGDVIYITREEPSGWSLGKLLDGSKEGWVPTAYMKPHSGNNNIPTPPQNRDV
Assay: SPOT array
Details: median of control spots 471

First: B1
Second: B2
The SPOT intensity of the first is higher: 2 for the first, 0 for the second.

B3 and B4 are the same in SPOT intensity: 0 for the first, 0 for the second.

Target: T15, Pin3, Q06449
T15 sequence (Q06449 53-122, looked up): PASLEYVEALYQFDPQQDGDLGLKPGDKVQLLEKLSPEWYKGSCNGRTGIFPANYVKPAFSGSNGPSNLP
Assay: SPOT array
Details: median of control spots 2171

Compared with B1, B2 is lower in SPOT intensity: 11 for the first, 0 for the second.

First: B3
Second: B4
The SPOT intensity of the first is higher: 9 for the first, 1 for the second.

Target: T16, Lsb4, P32793
T16 sequence (P32793 402-468, looked up): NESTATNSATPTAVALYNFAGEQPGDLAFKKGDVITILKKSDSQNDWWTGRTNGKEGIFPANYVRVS
Assay: SPOT array
Details: median of control spots 397

Compared with B1, B2 is higher in SPOT intensity: 0 for the first, 4 for the second.

Going from B3 to B4, the SPOT intensity falls from 2 to 1.

Target: T17, Lsb3, P43603
T17 sequence (P43603 385-451, looked up): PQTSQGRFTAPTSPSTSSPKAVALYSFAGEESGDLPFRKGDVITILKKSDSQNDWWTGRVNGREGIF
Assay: SPOT array
Details: median of control spots 406

Compared with B1, B2 is lower in SPOT intensity: 1 for the first, 0 for the second.

B3 and B4 are the same in SPOT intensity: 0 for the first, 0 for the second.

Target: T18, Cdc25, P04821
T18 sequence (P04821 50-136, looked up): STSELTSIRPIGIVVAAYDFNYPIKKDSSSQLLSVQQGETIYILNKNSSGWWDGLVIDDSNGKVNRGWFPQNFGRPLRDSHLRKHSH
Assay: SPOT array
Details: median of control spots 969

Going from B1 to B2, the SPOT intensity rises from 0 to 3.

Going from B3 to B4, the SPOT intensity falls from 2 to 0.

Target: GST
Assay: SPOT array
Details: median of control spots 978

Going from B1 to B2, the SPOT intensity falls from 2 to 0.

Compared with B3, B4 is higher in SPOT intensity: 1 for the first, 2 for the second.

Target: T19, Fus1, P11710
T19 sequence (P11710 432-512, looked up): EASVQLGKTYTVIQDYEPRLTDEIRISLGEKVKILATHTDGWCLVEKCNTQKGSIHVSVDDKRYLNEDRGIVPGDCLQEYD
Assay: SPOT array
Details: median of control spots 1200

First: B1
Second: B2
The SPOT intensity of the first is lower: 0 for the first, 1 for the second.

Going from B3 to B4, the SPOT intensity rises from 2 to 5.

Target: T20, Boi1, P38041
T20 sequence (P38041 1-86, looked up): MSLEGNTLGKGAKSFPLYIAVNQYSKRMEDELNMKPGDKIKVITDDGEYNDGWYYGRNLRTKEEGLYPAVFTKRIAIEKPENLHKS
Assay: SPOT array
Details: median of control spots 1162

B1 and B2 are the same in SPOT intensity: 0 for the first, 0 for the second.

Compared with B3, B4 is higher in SPOT intensity: 0 for the first, 1 for the second.

Target: T21, Bzz1-2, P38822
T21 sequence (P38822 568-633, looked up): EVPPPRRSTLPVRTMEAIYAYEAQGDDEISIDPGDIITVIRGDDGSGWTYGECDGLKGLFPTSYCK
Assay: SPOT array
Details: median of control spots 4538

First: B1
Second: B2
The SPOT intensity of the first is lower: 0 for the first, 7 for the second.

Compared with B3, B4 is lower in SPOT intensity: 5 for the first, 0 for the second.
